Test [1] concerns the target GPC3-GST fusion protein. Put plainly: ELISA, GPC3-GST fusion protein as antigen at 1 ug/ml. Background: In an ELISA, binding on a coated surface is turned into a signal by an enzyme label.
In test [2] the target is GPC3-GST fusion protein. The test can be described thus: ELISA, GPC3-GST fusion protein as antigen at 0.5 ug/ml.
Sequence of GPC3-GST fusion protein (P51654 368-548): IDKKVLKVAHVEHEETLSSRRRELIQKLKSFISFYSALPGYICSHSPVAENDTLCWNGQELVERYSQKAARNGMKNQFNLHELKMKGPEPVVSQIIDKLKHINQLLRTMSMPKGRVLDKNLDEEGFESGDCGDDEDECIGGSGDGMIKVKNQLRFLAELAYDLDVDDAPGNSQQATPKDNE

B1: 4E5 scFv, secreted from yeast as a fusion protein and purified on nickel-HIS beads (scFv, part only; not given: linker and fusion partner, not shown: large carriers)
scFv, part: QVQLQQSGAELVRPGASVKLSCKASGYTFNDYEMHWVKQTPVHGLKWIGALEPKTGDTAYSQKFKGKATLTADKSSSTAYMELRSLTSEDSAVYYCTSCYYYTYSGQGTLVTVSADVVMTQTPLSLPVSLGDQASISCRSSQSLVHSNGNTYLHWYLQKPGQSPKLLIYKVSNRFSGVPDRFSGSGSGTDFTLKISRVEAEDLGVYFCSQNTPVPPKFGSGTKLEIK
One may read the EC50 as the concentration giving half of the maximal effect. Regarding B1, the figures for the EC50 with GPC3-GST fusion protein [1] and in the test with GPC3-GST fusion protein [2] were 43.1 nM and 52 nM, respectively.

These data come from patent US20170291954A1.
